# Patent US20110009319A1
# Key:
# [1] = molecular target: TGF-b1 (UniProt P01137); assay: cell-based or functional assay
# [2] = molecular target: activin-A (UniProt P08476); assay: cell-based or functional assay
# activin-A, sequence (P08476 311-426): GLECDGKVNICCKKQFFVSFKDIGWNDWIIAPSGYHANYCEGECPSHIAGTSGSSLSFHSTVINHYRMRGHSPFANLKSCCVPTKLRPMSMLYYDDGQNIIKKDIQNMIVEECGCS
# TGF-b1, sequence (P01137 279-390 limits assumed): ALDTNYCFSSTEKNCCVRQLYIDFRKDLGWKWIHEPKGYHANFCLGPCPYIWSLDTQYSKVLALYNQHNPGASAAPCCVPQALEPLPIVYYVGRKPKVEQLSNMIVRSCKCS
substance,measurement,setting,value
wild type mouse Cripto (from UniProt P51865 18-134) (receptor),3TP-lux luciferase expression induced by TGF-b1 in HepG2 cells (fold reduction),[1],4
same,FAST2/A3-luciferase induction by 100 pM TGF-b1 in 293T cells (fold reduction),[1],3
same,3TP-lux luciferase expression induced by activin-A in HepG2 cells (fold reduction),[2],4
